Results on 1 molecule are retold here after US20240100133A1 (SAINT LOUIS UNIVERSITY, published 2024).

Experiment [1] addresses T1, Toll-like Receptor 4 (TLR4), human, endogenous in primary human monocytes (human, UniProt O00206 24-839).
T1 construct: whole, on cells
The experiment in a line: co-immunoprecipitation with anti-GzmA from lysates of GzmA-treated human monocytes, western blot for TLR4. For orientation: Immunoblotting shows a protein as a band on a membrane.

Experiment [2] concerns the target T2, Cluster of Differentiation 14 (CD14), human, endogenous in primary human monocytes (human, UniProt P08571 20-345).
T2 construct: whole, on cells; also called CD14 receptor
T2 sequence (looked up): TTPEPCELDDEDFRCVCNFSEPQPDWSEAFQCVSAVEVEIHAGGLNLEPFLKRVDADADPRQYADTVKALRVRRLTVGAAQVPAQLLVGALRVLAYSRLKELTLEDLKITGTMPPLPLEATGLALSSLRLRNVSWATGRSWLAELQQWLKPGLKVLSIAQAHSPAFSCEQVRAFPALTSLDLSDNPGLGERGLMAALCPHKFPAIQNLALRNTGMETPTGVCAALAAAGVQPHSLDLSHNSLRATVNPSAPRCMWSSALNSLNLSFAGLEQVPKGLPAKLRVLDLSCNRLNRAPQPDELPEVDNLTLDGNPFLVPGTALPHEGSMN
The experiment in a line: co-immunoprecipitation with anti-GzmA from lysates of GzmA-treated human monocytes, western blot for CD14.

T1 sequence (O00206 24-839): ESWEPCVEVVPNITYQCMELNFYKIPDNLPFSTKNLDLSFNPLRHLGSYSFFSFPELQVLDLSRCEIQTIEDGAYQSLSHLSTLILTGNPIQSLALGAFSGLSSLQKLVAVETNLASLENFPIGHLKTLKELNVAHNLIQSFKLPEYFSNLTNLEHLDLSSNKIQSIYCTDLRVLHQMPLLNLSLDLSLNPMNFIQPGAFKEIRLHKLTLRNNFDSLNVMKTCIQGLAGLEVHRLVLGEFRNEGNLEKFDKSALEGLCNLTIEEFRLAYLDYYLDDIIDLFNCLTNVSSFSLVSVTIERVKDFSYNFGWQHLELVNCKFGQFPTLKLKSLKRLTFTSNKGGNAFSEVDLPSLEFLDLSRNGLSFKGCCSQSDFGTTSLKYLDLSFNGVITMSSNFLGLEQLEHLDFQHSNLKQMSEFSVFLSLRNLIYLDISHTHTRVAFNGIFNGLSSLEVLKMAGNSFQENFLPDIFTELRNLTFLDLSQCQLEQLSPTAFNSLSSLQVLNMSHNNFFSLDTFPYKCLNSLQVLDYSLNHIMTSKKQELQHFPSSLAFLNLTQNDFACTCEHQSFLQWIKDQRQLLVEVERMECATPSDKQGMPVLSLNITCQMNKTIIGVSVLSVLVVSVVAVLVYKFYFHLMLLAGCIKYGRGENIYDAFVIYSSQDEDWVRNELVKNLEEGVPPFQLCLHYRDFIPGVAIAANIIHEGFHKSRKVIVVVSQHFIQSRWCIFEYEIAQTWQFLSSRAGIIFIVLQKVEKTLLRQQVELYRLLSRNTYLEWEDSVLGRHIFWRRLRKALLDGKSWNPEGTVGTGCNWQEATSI

B1: Monomeric Granzyme A C93S, recombinant human, His-tagged (GzmA-C93S) (enzyme)
chain: IIGGNEVTPHSRPYMVLLSLDRKTICAGALIAKDWVLTAAHCNLNKRSQVILGAHSITREEPTKQIMLVKKEFPYPSYDPATREGDLKLLQLMEKAKINKYVTILHLPKKGDDVKPGTMCQVAGWGRTHNSASWSDTLREVNITIIDRKVCNDRNHYNFNPVIGMNMVCAGSLRGGRDSCNGDSGSPLLCEGVFRGVTSFGLENKCGDPRGPGVYILLSKKHLNWIIMTIKGAV
notes: Forms only monomers; also called monomeric GzmA; GzmA-monomer; not shown: His tag
With B1, the binding result in experiment [1] and in experiment [2] was “no binding” throughout.
